The supplement of paper PMC11246515
± gives the standard deviation of the averaged measurements.

Test: total protein half-life in vivo (active degradation + dilution); higher = more stable protein
[1] = E. coli NCM3722 delta-clpP delta-lon delta-hslV, growth: N-lim chemostat, doubling time 6 h
[2] = E. coli NCM3722 delta-clpP, growth: N-lim chemostat, doubling time 6 h
[3] = E. coli NCM3722 delta-hslV, growth: N-lim chemostat, doubling time 6 h
[4] = E. coli NCM3722 delta-lon, growth: N-lim chemostat, doubling time 6 h
[5] = E. coli NCM3722 delta-smpB, growth: N-lim chemostat, doubling time 6 h
[6] = wild type E. coli NCM3722, growth: C-lim chemostat, doubling time 3 h
[7] = wild type E. coli NCM3722, growth: C-lim chemostat, doubling time 6 h
[8] = wild type E. coli NCM3722, growth: C-lim chemostat, doubling time 12 h
[9] = wild type E. coli NCM3722, growth: N-lim chemostat, doubling time 6 h
[10] = wild type E. coli NCM3722, growth: N-lim chemostat, doubling time 12 h
[11] = wild type E. coli NCM3722, growth: P-lim chemostat, doubling time 6 h
[12] = wild type E. coli NCM3722, growth: P-lim chemostat, doubling time 12 h

Sequence | total protein half-life in vivo [1] | total protein half-life in vivo [2] | total protein half-life in vivo [3] | total protein half-life in vivo [4] | total protein half-life in vivo [5] | total protein half-life in vivo [6] | total protein half-life in vivo [7] | total protein half-life in vivo [8] | total protein half-life in vivo [9] | total protein half-life in vivo [10] | total protein half-life in vivo [11] | total protein half-life in vivo [12]
MVSRRVQALLDQLRAQGIQDEQVLNALAAVPREKFVDEAFEQKAWDNIALPIGQGQTISQPYMVARMTELLELTPQSRVLEIGTGSGYQTAILAHLVQHVCSVERIKGLQWQARRRLKNLDLHNVSTRHGDGWQGWQARAPFDAIIVTAAPPEIPTALMTQLDEGGILVLPVGEEHQYLKRVRRRGGEFIIDTVEAVRFVPLVKGELA [P0A7A5] | 5.04 ± 0.19 h | 3.95 ± 0.35 h | 4.65 ± 0.94 h | 4.71 ± 0.85 h | 3.64 ± 0.14 h | 2.7898 ± 0.0014 h | 4.83 ± 2.6 h | 8.88 ± 0.65 h | 3.85 ± 0.078 h | 6.43 ± 0.091 h | 5.57 ± 0.56 h | 10.2 ± 0.73 h
MRLSLPRLKMPRLPGFSILVWISTALKGWVMGSREKDTDSLIMYDRTLLWLTFGLAAIGFIMVTSASMPIGQRLTNDPFFFAKRDGVYLILAFILAIITLRLPMEFWQRYSATMLLGSIILLMIVLVVGSSVKGASRWIDLGLLRIQPAELTKLSLFCYIANYLVRKGDEVRNNLRGFLKPMGVILVLAVLLLAQPDLGTVVVLFVTTLAMLFLAGAKLWQFIAIIGMGISAVVLLILAEPYRIRRVTAFWNPWEDPFGSGYQLTQSLMAFGRGELWGQGLGNSVQKLEYLPEAHTDFIFAIIGEELGYVGVVLALLMVFFVAFRAMSIGRKALEIDHRFSGFLACSIGIWFSFQALVNVGAAAGMLPTKGLTLPLISYGGSSLLIMSTAIMMLLRIDYETRLEKAQAFVRGSR [P0ABG4] | 4.49 h | 2.97 ± 0.5 h | 3.01 h | 3.64 h | 2.76 ± 0.73 h | 2.41 ± 0.21 h |  | 3.2 h |  |  | 2.93 h | 5 h
MSVFSLKIDIADNKFFNGETSPLFSQSQAKLARQFHQKIAGYRPTPLCALDDLANLFGVKKILVKDESKRFGLNAFKMLGGAYAIAQLLCEKYHLDIETLSFEHLKNAIGEKMTFATTTDGNHGRGVAWAAQQLGQNAVIYMPKGSAQERVDAILNLGAECIVTDMNYDDTVRLTMQHAQQHGWEVVQDTAWEGYTKIPTWIMQGYATLADEAVEQMREMGVTPTHVLLQAGVGAMAGGVLGYLVDVYSPQNLHSIIVEPDKADCIYRSGVKGDIVNVGGDMATIMAGLACGEPNPLGWEILRNCATQFISCQDSVAALGMRVLGNPYGNDPRIISGESGAVGLGVLAAVHYHPQRQSLMEKLALNKDAVVLVISTEGDTDVKHYREVVWEGKHAVAP |  |  |  |  |  |  | 4.2 h |  |  |  |  | 
MKQLWFAMSLVTGSLLFSANASATPASGALLQQMNLASQSLNYELSFISINKQGVESLRYRHARLDNRPLAQLLQMDGPRREVVQRGNEISYFEPGLEPFTLNGDYIVDSLPSLIYTDFKRLSPYYDFISVGRTRIADRLCEVIRVVARDGTRYSYIVWMDTESKLPMRVDLLDRDGETLEQFRVIAFNVNQDISSSMQTLAKANLPPLLSVPVGEKAKFSWTPTWLPQGFSEVSSSRRPLPTMDNMPIESRLYSDGLFSFSVNVNRATPSSTDQMLRTGRRTVSTSVRDNAEITIVGELPPQTAKRIAENIKFGAAQ [P0AFX9] |  | 6.16 ± 0.25 h | 6.13 ± 0.069 h | 5.896 ± 0.045 h | 5.8 ± 0.49 h | 2.96 ± 0.22 h | 6.16 ± 0.61 h | 10.4 ± 0.19 h | 6.73 ± 0.14 h | 13.2 ± 1.5 h | 5.88 ± 0.69 h | 12 ± 0.74 h
MSGLPLISRRRLLTAMALSPLLWQMNTAHAAAIDPNRIVALEWLPVELLLALGIVPYGVADTINYRLWVSEPPLPDSVIDVGLRTEPNLELLTEMKPSFMVWSAGYGPSPEMLARIAPGRGFNFSDGKQPLAMARKSLTEMADLLNLQSAAETHLAQYEDFIRSMKPRFVKRGARPLLLTTLIDPRHMLVFGPNSLFQEILDEYGIPNAWQGETNFWGSTAVSIDRLAAYKDVDVLCFDHDNSKDMDALMATPLWQAMPFVRAGRFQRVPAVWFYGATLSAMHFVRVLDNAIGGKA |  |  | 6.62 h | 6.51 ± 1.4 h | 3.92 ± 1.1 h | 2.71 h | 5.86 h | 12.2 h | 5.85 h | 12 ± 1.3 h |  | 
MSTFKPLKTLTSRRQVLKAGLAALTLSGMSQAIAKDELLKTSNGHSKPKAKKSGGKRVVVLDPGHGGIDTGAIGRNGSKEKHVVLAIAKNVRSILRNHGIDARLTRSGDTFIPLYDRVEIAHKHGADLFMSIHADGFTNPKAAGASVFALSNRGASSAMAKYLSERENRADEVAGKKATDKDHLLQQVLFDLVQTDTIKNSLTLGSHILKKIKPVHKLHSRNTEQAAFVVLKSPSVPSVLVETSFITNPEEERLLGTAAFRQKIATAIAEGVISYFHWFDNQKAHSKKR | 5.02 ± 0.67 h | 5.75 ± 0.35 h | 4.89 ± 0.52 h | 4.977 ± 0.029 h | 4.41 ± 0.32 h | 2.23 ± 0.033 h | 3.5509 ± 0.0011 h | 5 ± 0.2 h | 5.08 ± 0.94 h | 8.42 ± 0.29 h | 4.48 ± 0.47 h | 8.52 ± 0.41 h
MRLLPLVAAATAAFLVVACSSPTPPRGVTVVNNFDAKRYLGTWYEIARFDHRFERGLEKVTATYSLRDDGGLNVINKGYNPDRGMWQQSEGKAYFTGAPTRAALKVSFFGPFYGGYNVIALDREYRHALVCGPDRDYLWILSRTPTISDEVKQEMLAVATREGFDVSKFIWVQQPGS [P0A901] | 5.85 ± 0.12 h | 6.28 ± 0.6 h | 5.56 ± 0.29 h | 6.82 ± 0.84 h | 5.8 ± 0.32 h | 2.82 ± 0.082 h | 5.41 ± 0.38 h | 10.6 ± 2.6 h | 5.78 ± 0.14 h | 11.8 ± 1.4 h | 5.43 ± 0.26 h | 11.04 ± 0.072 h
